# Measurements: the Immune Epitope Database (IEDB)
# What was measured:
# HLA-A*01:01 = assay: IEDB peptide-MHC binding, purified MHC/competitive/radioactivity; filed as Kd, often an IC50 or EC50 that approximates it; ≥ and ≤ were set here for values at or beyond the usual limits of such assays
# HLA-A*23:01 = assay: as above
# HLA-A*24:02 = assay: as above
# HLA-A*26:01 = assay: as above
# HLA-A*29:02 = assay: as above
# HLA-A*30:02 = assay: as above
# HLA-A*30:01 = assay: as above
# HLA-A*32:01 = assay: as above
# HLA-B*08:01 = assay: as above
# HLA-B*53:01 = assay: as above; conditions: source organism: Dengue virus 2 Jamaica/1409/1983
# HLA-B*07:02 = assay: as above
# HLA-B*46:01 = assay: IEDB peptide-MHC binding, purified MHC/direct/fluorescence; filed as Kd, often an IC50 or EC50 that approximates it; ≥ and ≤ were set here for values at or beyond the usual limits of such assays; conditions: source organism: West Nile virus
# HLA-A*02:06 = assay: IEDB peptide-MHC binding, purified MHC/competitive/radioactivity; filed as Kd, often an IC50 or EC50 that approximates it; ≥ and ≤ were set here for values at or beyond the usual limits of such assays
# HLA-B*44:03 = assay: as above; conditions: source organism: Dengue virus 2 Jamaica/1409/1983
# HLA-A*02:02 = assay: as above; conditions: source organism: Vaccinia virus WR
# HLA-A*02:03 = assay: as above; conditions: source organism: Vaccinia virus WR
# [1] = source organism: SARS coronavirus Tor2
# [2] = source organism: Mammarenavirus brazilense
# [3] = source organism: Mammarenavirus guanaritoense
# [4] = source organism: Dengue virus 2 Jamaica/1409/1983
# [5] = source organism: Dengue virus 4 Philippines/H241/1956
# [6] = source organism: Dengue virus 3 Singapore/8120/1995
# [7] = source organism: Dengue virus 1 Brazil/97-11/1997
# [8] = source organism: Mammarenavirus tacaribeense
# [9] = source organism: Dengue virus 3 Martinique/1243/1999
# [10] = source organism: Mammarenavirus whitewaterense
# [11] = source organism: Lymphocytic choriomeningitis virus (strain Armstrong)
# [12] = source organism: Vaccinia virus WR
# [13] = source organism: Mammarenavirus lassaense
sequence,measurement,setting,value
DYDCVSFCY,Kd,HLA-A*01:01; [1],≥ 58 µM
same,Kd,HLA-A*23:01; [1],≥ 20.9 µM
same,Kd,HLA-A*24:02; [1],≥ 20.2 µM
same,Kd,HLA-A*26:01; [1],17.6 µM
same,Kd,HLA-A*29:02; [1],0.145 µM
same,Kd,HLA-A*30:02; [1],1.4 µM
IPDVIELAY,Kd,HLA-A*01:01; [2],5.51 µM
same,Kd,HLA-A*23:01; [2],18.6 µM
same,Kd,HLA-A*24:02; [2],≥ 33.5 µM
same,Kd,HLA-A*26:01; [2],≥ 38.3 µM
same,Kd,HLA-A*29:02; [2],3.15 µM
same,Kd,HLA-A*30:02; [2],2.76 µM
AYEHKNRSRL,Kd,HLA-A*23:01; [3],10.2 µM
same,Kd,HLA-A*24:02; [3],≥ 26.5 µM
same,Kd,HLA-A*29:02; [3],≥ 20.9 µM
KMETLQRKY,Kd,HLA-A*30:02; [4],≥ 76.9 µM
ETAWDFGSVG,Kd,HLA-A*26:01; [5],0.138 µM
LFDVIPVSY,Kd,HLA-A*01:01; [3],0.613 µM
same,Kd,HLA-A*26:01; [3],≥ 51.9 µM
same,Kd,HLA-A*29:02; [3],0.0673 µM
same,Kd,HLA-A*30:01; [3],≥ 21.1 µM
same,Kd,HLA-A*30:02; [3],1.91 µM
same,Kd,HLA-A*32:01; [3],9.75 µM
VTTWEDVPY,Kd,HLA-A*01:01; [6],0.52 µM
same,Kd,HLA-A*30:02; [6],0.248 µM
KKKQRSGVL,Kd,HLA-B*08:01; [7],2.29 µM
FVEGVSGGSW,Kd,HLA-A*26:01; [4],14.2 µM
same,Kd,HLA-B*53:01,0.0488 µM
SPILSITISE,Kd,HLA-B*07:02; [4],2.15 µM
LLLLVAPAY,Kd,HLA-B*46:01,≥ 20 µM
SFYCDPKRFF,Kd,HLA-A*23:01; [8],0.491 µM
same,Kd,HLA-A*24:02; [8],1.98 µM
same,Kd,HLA-A*29:02; [8],0.156 µM
KREDLWCGSL,Kd,HLA-B*08:01; [5],4.73 µM
LGRNKKPRL,Kd,HLA-B*08:01; [9],0.265 µM
VWKRFEHLCV,Kd,HLA-A*01:01; [10],≥ 70.4 µM
same,Kd,HLA-A*23:01; [10],7.99 µM
same,Kd,HLA-A*24:02; [10],≥ 47.6 µM
same,Kd,HLA-A*26:01; [10],≥ 69.7 µM
same,Kd,HLA-A*29:02; [10],≥ 71.4 µM
same,Kd,HLA-A*30:02; [10],10.5 µM
RPTPKGAVMD,Kd,HLA-B*07:02; [5],0.1 µM
LYLYALIYF,Kd,HLA-A*01:01; [1],5.16 µM
same,Kd,HLA-A*23:01; [1],7.85e-05 µM
same,Kd,HLA-A*24:02; [1],0.00101 µM
same,Kd,HLA-A*26:01; [1],12.6 µM
same,Kd,HLA-A*29:02; [1],0.000143 µM
same,Kd,HLA-A*30:02; [1],≥ 81.1 µM
SPTSYLDVDL,Kd,HLA-B*07:02; [9],1.64 µM
SSPDAVTTY,Kd,HLA-A*01:01; [1],5.49 µM
same,Kd,HLA-A*23:01; [1],≥ 77.8 µM
same,Kd,HLA-A*24:02; [1],≥ 77.6 µM
same,Kd,HLA-A*26:01; [1],9.74 µM
same,Kd,HLA-A*29:02; [1],≥ 21.6 µM
same,Kd,HLA-A*30:02; [1],3.29 µM
MLLNRFTMA,Kd,HLA-A*02:06; [7],0.00512 µM
same,Kd,HLA-B*08:01; [7],0.0102 µM
SPLLLTSSQQ,Kd,HLA-B*07:02; [4],1.22 µM
VVRPPFNML,Kd,HLA-B*07:02; [5],0.0205 µM
AYRIKQRGIL,Kd,HLA-B*08:01; [4],0.659 µM
LIFRGPNVV,Kd,HLA-A*01:01; [11],10.8 µM
same,Kd,HLA-A*23:01; [11],15.4 µM
same,Kd,HLA-A*24:02; [11],≥ 77.5 µM
same,Kd,HLA-A*26:01; [11],≥ 77.9 µM
same,Kd,HLA-A*29:02; [11],≥ 54.7 µM
same,Kd,HLA-A*30:02; [11],9.97 µM
ELCEDTMTY,Kd,HLA-A*26:01; [7],1.74 µM
EKWKRQLNSL,Kd,HLA-B*08:01; [5],0.251 µM
EKEENMVKSL,Kd,HLA-B*08:01; [9],10.6 µM
IMRMRFKKG,Kd,HLA-B*08:01; [12],0.0624 µM
MTDKTPVHS,Kd,HLA-A*01:01; [5],6.57 µM
EEVQVLALEP,Kd,HLA-B*44:03,≥ 23.4 µM
WFSQRGGSY,Kd,HLA-A*01:01; [1],0.182 µM
same,Kd,HLA-A*23:01; [1],≥ 77.8 µM
same,Kd,HLA-A*24:02; [1],≥ 62.5 µM
same,Kd,HLA-A*26:01; [1],2.16 µM
same,Kd,HLA-A*29:02; [1],0.000847 µM
same,Kd,HLA-A*30:02; [1],0.011 µM
NVSLVKPTVY,Kd,HLA-A*01:01; [1],12.4 µM
same,Kd,HLA-A*23:01; [1],≥ 70 µM
same,Kd,HLA-A*24:02; [1],≥ 70.3 µM
same,Kd,HLA-A*26:01; [1],16.3 µM
same,Kd,HLA-A*29:02; [1],2.41 µM
same,Kd,HLA-A*30:02; [1],1.17 µM
EALYYVHSL,Kd,HLA-A*02:02,14.2 µM
same,Kd,HLA-A*02:03,5.77 µM
same,Kd,HLA-A*02:06; [12],14.8 µM
same,Kd,HLA-B*08:01; [12],0.00211 µM
EPPFGDSYII,Kd,HLA-B*53:01,0.363 µM
YVSSIFLHL,Kd,HLA-A*01:01; [10],0.514 µM
same,Kd,HLA-A*26:01; [10],1.85 µM
same,Kd,HLA-A*29:02; [10],0.0157 µM
same,Kd,HLA-A*30:01; [10],4.82 µM
same,Kd,HLA-A*30:02; [10],12.5 µM
same,Kd,HLA-A*32:01; [10],≥ 51 µM
DYSVLYNSTF,Kd,HLA-A*01:01; [1],≥ 70.4 µM
same,Kd,HLA-A*23:01; [1],0.159 µM
same,Kd,HLA-A*24:02; [1],0.0242 µM
same,Kd,HLA-A*26:01; [1],4.22 µM
same,Kd,HLA-A*29:02; [1],2.54 µM
same,Kd,HLA-A*30:02; [1],≥ 60.4 µM
AGFSAGLTY,Kd,HLA-A*01:01; [13],≥ 23.9 µM
same,Kd,HLA-A*23:01; [13],≥ 43.8 µM
same,Kd,HLA-A*24:02; [13],≥ 77.5 µM
same,Kd,HLA-A*26:01; [13],≥ 77.9 µM
same,Kd,HLA-A*29:02; [13],0.0636 µM
same,Kd,HLA-A*30:02; [13],0.528 µM
HLAIMAVFKM,Kd,HLA-A*26:01; [5],9.58 µM
RPLKEKEENL,Kd,HLA-B*08:01; [4],1.82 µM
KVDAIDGEY,Kd,HLA-A*01:01; [4],0.953 µM
same,Kd,HLA-A*30:02; [4],0.171 µM
DQLSKFRTL,Kd,HLA-B*08:01; [12],0.0074 µM
PTEQVDTLL,Kd,HLA-A*01:01; [5],14.8 µM
TKKVRTNAA,Kd,HLA-B*08:01; [9],0.0436 µM
FLGEDGCWY,Kd,HLA-A*01:01; [5],0.277 µM
MTTEDMLAVW,Kd,HLA-B*53:01,0.354 µM
